Test results taken from PMC2173332.
Read-outs that look alike come from different tables or passages of the source.

Tests used:
[1] = biological target: acyl-CoA oxidase isoform Aox1p (Yarrowia lipolytica); experiment: co-IP
[2] = biological target: acyl-CoA oxidase isoform Aox1p (Yarrowia lipolytica); experiment: co-IP; remark: listed apart in the source

| stoichiometry N [1] | stoichiometry N [2] | Substance |
| --- | --- | --- |
| 1 | 1 | acyl-CoA oxidase isoform Aox2p (enzyme) |
| 1 | 1 | acyl-CoA oxidase isoform Aox5p (enzyme) |
| 1 | 1 | acyl-CoA oxidase isoform Aox3p (enzyme) |
| 1 | 1 | acyl-CoA oxidase isoform Aox4p (enzyme) |
